Measured values: the RNAGym collection of RNA variant scans (doi:10.7554/elife.80360)

B1: Twister Ribozyme (parent)
chain: AACACUGCCAAUGCCGGUCCCAAGCCCGGAUAAAAGUGGAGGGGGCGG

Variants of: B1
Experiment: self-cleavage, relative activity (ratio to wild type); higher = more cleavage; co-transcriptional

Variant	self-cleavage
C21G C46U	0.0875
C21A C46U	0.13
C21A C46A	0.0995
C21A C46G	0.173
C21G C27A	0.0855
C20G A34C	0.0838
C21A G41A	0.27
A22C G47C	0.458
C20U A30U	1.05
C20U A30C	0.533
C20U A30G	0.823
C20G A23G	0.0348
C21G A33G	0.03
C21G A33C	0.152
C21U G45C	0.0779
C21U G45A	0.123
C21U G29A	0.096
C21U G29C	0.0653
C20G G41A	0.0636
C20G G41C	0.0754
C20U G28A	0.809
C20U G28C	0.774
C20G A30U	0.165
C20G A30C	0.0614

Variant	self-cleavage
A22C A34C	0.169
A22C A34G	0.912
A22C A34U	0.872
A22C C27G	0.101
A22C C27A	0.768
C21G	0.0865
C21U	0.129
C21A	0.13
C19U G36C	0.129
A22C G44U	0.967
A22C G44C	0.905
C21G G39A	0.0549
C21G G39C	0.128
C20G C46G	0.126
C21U A33C	0.119
C21U A33U	0.0831
C19U G41U	0.125
C20A G41U	0.0817
C20A G41C	0.0888
C20G G28C	0.171
C20G G28A	0.141
C20U G24A	0.0805
C20U A23U	0.17
A22C G43C	0.145

Variant	self-cleavage
A22C G43A	0.183
C21U C27A	0.0634
C21U C27U	0.104
C20U G39A	0.288
C19U A35G	0.683
C19U A35U	0.972
C20G C25U	0.0692
C20G C25A	0.0525
C21U A32C	0.107
C21U A32U	0.127
C20U G38C	0.841
C20U G38A	0.802
A22C G45U	0.946
A22C G45C	0.491
C20G G44C	0.0871
C20U G29U	0.921
C20U G29C	0.305
C20U A40G	0.149
C20U A40U	0.125
C21A G36C	0.109
C21A G36U	0.0686
C20G G36A	0.0839
C20U G36A	0.216
C21A G39A	0.0763

Variant	self-cleavage
C21A G39U	0.0973
C20A C46A	0.0788
C20A C46U	0.154
C20U U31G	0.873
C20U U31C	1.03
C21U A30C	0.0806
C21U A30U	0.141
C21A U37C	0.115
C21A U37G	0.0471
A22C A40U	0.152
A22C A40C	0.102
C20U A22G	0.119
C20U A22U	0.543
C19U G45C	0.38
C19U G45A	0.915
C21U U37C	0.0764
C21U U37G	0.0506
C19U A23C	0.117
C21A A32G	0.0702
C19U C25U	0.623
C19U C25G	0.176
C21A G44C	0.0966
C20G G24C	0.123
C20G G24A	0.109

Variant	self-cleavage
C20G G24U	0.0899
C21A A23U	0.091
C20G G29U	0.146
C20G G29A	0.189
C20U G43A	0.177
C20U G43U	0.146
C21A A22U	0.0641
C21U C46U	0.0929
C20A G29C	0.0857
C20A G29U	0.103
C21U G28A	0.102
C21U G28C	0.0826
C21U U31A	0.105
C21U U31C	0.103
C21A G47C	0.0714
C21A G47U	0.117
C21U G42U	0.0927
C21U G42A	0.0823
C20G A40G	0.104
C21G C25A	0.0791
C21G G48C	0.0934
C21G G48U	0.0902
C20U G44A	1
C20U G44U	0.893

Variant	self-cleavage
C20U G44C	0.816
C21U A22U	0.072
C20U U37A	0.474
C20U U37C	0.192
C21U G24A	0.102
C20A C26A	0.0889
C20A C26U	0.0622
C20A A35C	0.191
C20A A35U	0.151
C20A G24C	0.0912
C20A G24A	0.114
C20A G24U	0.0913
C21G G36U	0.0888
C21G G36A	0.0998
C21U A34U	0.11
C21U A34G	0.0608
C20U G45U	0.802
C20G G48A	0.124
C20G G48U	0.12
C20G C21A	0.0754
C20G C21G	0.103
C21G G41U	0.32
C21G G41C	0.577
C20A A30C	0.109

Variant	self-cleavage
C20A A30U	0.175
C21A G24C	0.0911
C21A G24A	0.0758
C21A G48U	0.154
C21A G48A	0.107
C21G G28U	0.0788
C21G G28C	0.0382
C21G G28A	0.124
C20A G38C	0.0639
C20A G38U	0.0791
C19U C26A	0.116
C19U G48A	0.915
C21G G38U	0.0824
C21G G38C	0.0966
C19U C27A	0.176
C19U C27G	0.0975
C21U G44C	0.0722
C21U G44A	0.126
C21U A35U	0.115
C20A A33C	0.0903
C20A A33G	0.116
C21G U31C	0.0753
C21G U31A	0.0515
